The values that follow come from patent publication US8563513 (VAN ANDEL RESEARCH INSTITUTE, dated 2013).

Where no end group is shown, it is not given here.

The target of assay [1] is T1, PTH1R in cell membranes, G protein-coupled conformation (RG) (UniProt Q03431 27-593).
T1 construct: whole, on cells; Cell membranes, not intact cells; RG state studied by co-expressing the receptor with dominant negative Gαs; also called G protein-coupled receptor
Nature of the assay: competition binding, PTH1R in cell membranes, RG state (dominant negative Gαs), n = 3.

Assay [2] concerns the target T2, MBP-PTH1R ECD-(His)6 fusion protein (UniProt Q03431 29-187).
T2 construct: range 29-187; Expressed in E. coli, disulfide shuffled in vitro; also called MBP-PTH1R ECD-H6; MBP-PTH1R ECD fusion protein
T2 sequence: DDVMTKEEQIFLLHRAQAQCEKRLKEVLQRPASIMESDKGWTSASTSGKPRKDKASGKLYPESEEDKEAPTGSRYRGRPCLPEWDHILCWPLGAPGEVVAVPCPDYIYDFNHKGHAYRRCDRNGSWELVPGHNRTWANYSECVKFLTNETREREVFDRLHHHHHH
Nature of the assay: AlphaScreen single point competition; peptide 20 µM against biotin-PTH(7-34)NH2 (23 nM) on MBP-PTH1R-ECD (23 nM) [panel H]. Here is the method: (§1) ECD-peptide binding assays. The binding of peptides to the MBP-PTH1R ECD-H6 fusion protein was assessed using an AlphaScreen assay (Perkin-Elmer). […] The pre-coupling reactions were mixed, un-labeled competitor peptides were added as indicated, and the reactions were incubated 4 to 5 hrs to reach equilibrium. Photon counts were recorded in 384-well optiplates using an Envision 2104 plate reader (Perkin-Elmer). Prism 5.0 software (GraphPad Software, San Diego) was used to fit the data to a fixed-slope dose-response inhibition equation for determination of IC50 values. Real-time analysis of the binding of peptides to the isolated PTH1R ECD using the Octet Red system (ForteBio) was performed as described in below.

The target of assay [3] is T2, MBP-PTH1R ECD-(His)6 fusion protein. Nature of the assay: AlphaScreen single point competition; peptide 20 µM against biotin-PTH(7-34)NH2 (23 nM) on MBP-PTH1R-ECD (23 nM) [panel A]. Here is the method: as §1
(Alpha assays give light when donor and acceptor beads are brought close together.)

For assay [4] the target is unchanged. Nature of the assay: AlphaScreen single point competition; peptide 20 µM against biotin-PTH(7-34)NH2 (23 nM) on MBP-PTH1R-ECD (23 nM) [panel I]. The protocol: as §1
Assay [5] shares this target. Nature of the assay: AlphaScreen single point competition; peptide 20 µM against biotin-PTH(7-34)NH2 (23 nM) on MBP-PTH1R-ECD (23 nM) [panel B]. Here is the method:
as §1

T1 sequence (Q03431 27-593): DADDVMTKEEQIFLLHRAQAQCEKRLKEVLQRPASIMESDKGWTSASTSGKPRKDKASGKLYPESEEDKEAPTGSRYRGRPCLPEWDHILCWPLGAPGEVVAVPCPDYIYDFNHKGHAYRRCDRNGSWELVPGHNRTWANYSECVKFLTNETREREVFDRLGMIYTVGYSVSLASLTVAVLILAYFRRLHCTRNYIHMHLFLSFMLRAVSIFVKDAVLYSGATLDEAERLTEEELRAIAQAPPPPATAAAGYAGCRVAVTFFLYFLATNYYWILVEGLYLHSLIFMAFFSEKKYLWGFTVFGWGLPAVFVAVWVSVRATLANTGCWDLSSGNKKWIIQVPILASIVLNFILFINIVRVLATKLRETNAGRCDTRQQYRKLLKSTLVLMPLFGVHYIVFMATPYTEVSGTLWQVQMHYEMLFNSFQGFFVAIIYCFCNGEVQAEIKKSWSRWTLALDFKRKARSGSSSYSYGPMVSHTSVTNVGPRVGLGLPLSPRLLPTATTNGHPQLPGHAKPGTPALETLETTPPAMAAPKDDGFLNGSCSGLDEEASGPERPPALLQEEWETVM

B1: PTH(1-34)NH2 [K27L/L28I] (peptide)
peptide: SVSEIQLMHNLGKHLNSMERVEWLRKLIQDVHNF-NH2
On to B1, for which, in assay [1], the half-inhibitory concentration (IC50) (as a rule, the point on the concentration scale where inhibition reaches its midpoint) came out at 0.38 nM and the “IC50 Log M” value was -9.5 Log M.

B2: PTH(15-34)NH2 (peptide)
peptide: LNSMERVEWLRKKLQDVHNF-NH2
notes: also called C-terminally amidated 15-34 fragment of PTH
As to B2, the binding result in assay [2] is given as “binds”.

B3: E19A (peptide)
peptide: LNSMARVEWLRKKLQDVHNF-NH2
notes: also called PTH(15-34)NH2 [E19A]
Regarding B3, the binding result in assay [2] is given as “binds”.

B4: W23F/V31I (peptide)
peptide: LNSMERVEFLRKKLQDIHNF-NH2
notes: also called PTH(15-34)NH2 [W23F/V31I]
As for B4, in assay [3], the binding result was “binds”.

B5: K27A (peptide)
peptide: LNSMERVEWLRKALQDVHNF-NH2
notes: also called PTH(15-34)NH2 [K27A]
Regarding B5, the binding result in assay [2] was “binds”.

B6: W23F/L28I (peptide)
peptide: LNSMERVEFLRKKIQDVHNF-NH2
notes: also called PTH(15-34)NH2 [W23F/L28I]
In the case of B6, in assay [3], the binding result is listed as “binds”.

B7: V31A (peptide)
peptide: LNSMERVEWLRKKLQDAHNF-NH2
notes: also called PTH(15-34)NH2 [V31A]
On to B7, for which the binding result in assay [2] is listed as “binds”.

B8: V21A (peptide)
peptide: LNSMERAEWLRKKLQDVHNF-NH2
notes: also called PTH(15-34)NH2 [V21A]
Take B8: in assay [2], the binding result was “binds”.

B9: PTH(15-34)NH2 [K27′L/V31′I] (peptide)
peptide: LNSMERVEWLRKLLQDIHNF-NH2
notes: Hybrid PTH/PTHrP peptide in the PTH(15-34)NH2 scaffold
With B9, the binding result in assay [3] is “binds”.

B10: PTH(15-34)NH2 [V31′I] (peptide)
peptide: LNSMERVEWLRKKLQDIHNF-NH2
notes: as for B9
On to B10, for which, in assay [3], the binding result is reported as “binds”.

B11: PTH(15-34)NH2 [L28′I] (peptide)
peptide: LNSMERVEWLRKKIQDVHNF-NH2
notes: as for B9
As to B11, the binding result in assay [3] is “binds”.

B12: L24A (peptide)
peptide: LNSMERVEWARKKLQDVHNF-NH2
notes: also called PTH(15-34)NH2 [L24A]
With B12, in assay [2], the binding result is reported as “no binding (tested: 20 µM)”.

B13: Q29A (peptide)
peptide: LNSMERVEWLRKKLADVHNF-NH2
notes: also called PTH(15-34)NH2 [Q29A]
Consider B13, for which the binding result in assay [2] was “binds”.

B14: PTH(15-34)NH2 [W23′F/K27′L] (peptide)
peptide: LNSMERVEFLRKLLQDVHNF-NH2
notes: as for B9
For B14, in assay [3], the binding result was “binds”.

B15: W23A (peptide)
peptide: LNSMERVEALRKKLQDVHNF-NH2
notes: also called PTH(15-34)NH2 [W23A]
Turning to B15, the binding result in assay [2] was “no binding (tested: 20 µM)”.

B16: R20A (peptide)
peptide: LNSMEAVEWLRKKLQDVHNF-NH2
notes: also called PTH(15-34)NH2 [R20A]
Take B16: the binding result in assay [2] is listed as “binds”.

B17: K26A (peptide)
peptide: LNSMERVEWLRAKLQDVHNF-NH2
notes: also called PTH(15-34)NH2 [K26A]
As for B17, the binding result in assay [2] is “binds”.

B18: PTH(15-34)NH2 [K27′L] (peptide)
peptide: LNSMERVEWLRKLLQDVHNF-NH2
notes: as for B9
As for B18, the binding result in assay [3] is recorded as “binds”.

B19: L28I/V31I (peptide)
peptide: LNSMERVEWLRKKIQDIHNF-NH2
notes: also called PTH(15-34)NH2 [L28I/V31I]
For B19, the binding result in assay [3] was “binds”.

B20: L28A (peptide)
peptide: LNSMERVEWLRKKAQDVHNF-NH2
notes: also called PTH(15-34)NH2 [L28A]
As to B20, the binding result in assay [2] is “no binding (tested: 20 µM)”.

B21: PTH(15-34)NH2 [K27′L/L28′I] (peptide)
peptide: LNSMERVEWLRKLIQDVHNF-NH2
notes: as for B9
On to B21, for which the binding result in assay [3] was “binds”.

B22: H32A (peptide)
peptide: LNSMERVEWLRKKLQDVANF-NH2
notes: also called PTH(15-34)NH2 [H32A]
Take B22: the binding result in assay [2] is listed as “binds”.

B23: PTH(15-34)NH2 [W23′F] (peptide)
peptide: LNSMERVEFLRKKLQDVHNF-NH2
notes: as for B9
Regarding B23, the binding result in assay [3] is reported as “binds”.

B24: F34A (peptide)
peptide: LNSMERVEWLRKKLQDVHNA-NH2
notes: also called PTH(15-34)NH2 [F34A]
For the molecule B24, the binding result in assay [2] is reported as “binds”.

B25: PTH(15-34)NH2 [W23′F/K27′L/L28′I/V31′I] (peptide)
peptide: LNSMERVEFLRKLIQDIHNF-NH2
notes: Quadruple swap peptide in the PTH(15-34)NH2 scaffold; also called W23′F/K27′L/L28′I/V31′I peptide
Regarding B25, in assay [3], the binding result is “binds”.

B26: F23A (peptide)
peptide: GKSIQDLRRRFALHHLIAEIHTA-NH2
notes: also called PTHrP(12-34)NH2 [F23A]
With B26, in assay [4], the binding result was “binds”.

B27: H32A (peptide)
peptide: GKSIQDLRRRFFLHHLIAEIATA-NH2
notes: also called PTHrP(12-34)NH2 [H32A]
For the molecule B27, the binding result in assay [4] is listed as “binds”.

B28: F23W/I28L (peptide)
peptide: GKSIQDLRRRFWLHHLLAEIHTA-NH2
notes: also called PTHrP(12-34)NH2 [F23W/I28L]
For B28, the binding result in assay [5] is on record as “binds”.

B29: PTHrP(12-34)NH2 [L27′K/I28′L] (peptide)
peptide: GKSIQDLRRRFFLHHKLAEIHTA-NH2
notes: Hybrid PTH/PTHrP peptide in the PTHrP(12-34)NH2 scaffold
With B29, the binding result in assay [5] was “binds”.

B30: PTHrP(12-34)NH2 [F23′W/L27′K] (peptide)
peptide: GKSIQDLRRRFWLHHKIAEIHTA-NH2
notes: as for B29
In the case of B30, in assay [5], the binding result is listed as “binds”.

B31: Q16A (peptide)
peptide: GKSIADLRRRFFLHHLIAEIHTA-NH2
notes: also called PTHrP(12-34)NH2 [Q16A]
On to B31, for which the binding result in assay [4] was “binds”.

B32: PTHrP(12-34)NH2 [L27′K] (peptide)
peptide: GKSIQDLRRRFFLHHKIAEIHTA-NH2
notes: as for B29
Regarding B32, the binding result in assay [5] is on record as “binds”.

B33: I28A (peptide)
peptide: GKSIQDLRRRFFLHHLAAEIHTA-NH2
notes: also called PTHrP(12-34)NH2 [I28A]
Take B33: in assay [4], the binding result was “binds”.

B34: R21A (peptide)
peptide: GKSIQDLRRAFFLHHLIAEIHTA-NH2
notes: also called PTHrP(12-34)NH2 [R21A]
As to B34, the binding result in assay [4] is listed as “binds”.

B35: T33A (peptide)
peptide: GKSIQDLRRRFFLHHLIAEIHAA-NH2
notes: also called PTHrP(12-34)NH2 [T33A]
Consider B35, for which, in assay [4], the binding result is “binds”.

B36: PTHrP(12-34)NH2 [L27′K/I31′V] (peptide)
peptide: GKSIQDLRRRFFLHHKIAEVHTA-NH2
notes: as for B29
As to B36, in assay [5], the binding result is reported as “binds”.

B37: L27A (peptide)
peptide: GKSIQDLRRRFFLHHAIAEIHTA-NH2
notes: also called PTHrP(12-34)NH2 [L27A]
On to B37, for which, in assay [4], the binding result was “binds”.

B38: R19A (peptide)
peptide: GKSIQDLARRFFLHHLIAEIHTA-NH2
notes: also called PTHrP(12-34)NH2 [R19A]
Turning to B38, the binding result in assay [4] is recorded as “binds”.

B39: F23W/I31V (peptide)
peptide: GKSIQDLRRRFWLHHLIAEVHTA-NH2
notes: also called PTHrP(12-34)NH2 [F23W/I31V]
Regarding B39, the binding result in assay [5] was “binds”.

B40: L24A (peptide)
peptide: GKSIQDLRRRFFAHHLIAEIHTA-NH2
notes: also called PTHrP(12-34)NH2 [L24A]
Turning to B40, in assay [4], the binding result is listed as “binds”.

B41: I31A (peptide)
peptide: GKSIQDLRRRFFLHHLIAEAHTA-NH2
notes: also called PTHrP(12-34)NH2 [I31A]
Take B41: in assay [4], the binding result is “binds”.

B42: R20A (peptide)
peptide: GKSIQDLRARFFLHHLIAEIHTA-NH2
notes: also called PTHrP(12-34)NH2 [R20A]
Consider B42, for which the binding result in assay [4] is “no binding (tested: 20 µM)”.

B43: PTHrP(12-34)NH2 [F23′W/L27′K/I28′L/I31′V] (peptide)
peptide: GKSIQDLRRRFWLHHKLAEVHTA-NH2
notes: Quadruple swap peptide in the PTHrP(12-34)NH2 scaffold; also called quadruply mutant PTHrP peptide
B43: the binding result in assay [5] is listed as “binds”.

B44: PTHrP(12-34)NH2 [F23′W] (peptide)
peptide: GKSIQDLRRRFWLHHLIAEIHTA-NH2
notes: as for B29
As to B44, in assay [5], the binding result is recorded as “binds”.

B45: I28L/I31V (peptide)
peptide: GKSIQDLRRRFFLHHLLAEVHTA-NH2
notes: also called PTHrP(12-34)NH2 [I28L/I31V]
Regarding B45, in assay [5], the binding result is “binds”.

B46: PTHrP(12-34)NH2 [I31′V] (peptide)
peptide: GKSIQDLRRRFFLHHLIAEVHTA-NH2
notes: as for B29
As for B46, the binding result in assay [5] is on record as “binds”.

B47: PTHrP(12-34)NH2 [I28′L] (peptide)
peptide: GKSIQDLRRRFFLHHLLAEIHTA-NH2
notes: as for B29
On to B47, for which, in assay [5], the binding result is reported as “binds”.
